± gives the standard deviation of the averaged measurements.
B1: library; a variant is named by its letters at N, in order (parent)
chain: GCUGUCACCGAGAAACUGUGAAGUAUAUCUUAAACCUGGGCACUUAAAAGAUAUAUGGAGUUAGUAGUGCAACCUGCUCGGUCUGAUGAGUCCNNNNNNGGACGAAACAGC

Columns and labels:
cyclic di-GMP [1] = variants of: B1; assay: FACS-Seq fitted mean relative fluorescence mCherry/BFP without ligand (log10 relative fluorescence); HEK293T; ligand: cyclic di-GMP (c-di-GMP-II aptamer); higher = higher reporter protein expression; conditions: ligand present: no
Procedure, shortened: (§1)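 Enriched HEK293T cells carrying, by lentivirus, an mCherry reporter with the ribozyme switch and an EF1α-BFP marker spent 48 h with or without ligand and were sorted into 6 bins by mCherry/BFP. MiSeq sequencing of PCR-amplified bin genomic DNA gave bin counts. Fluorescence was calculated as the fitted normal mean of those counts. Counts were binned on log10(mCherry/BFP), and means were scaled to five spiked-in control ribozymes.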

cyclic di-GMP [2] = variants of: B1; assay: normalized RNA/DNA level without ligand (relative to sTRSVctl = 100) (log10 (% of sTRSVctl)); HEK293T; ligand: cyclic di-GMP (c-di-GMP-II aptamer); higher = less ribozyme self-cleavage, higher mRNA level; conditions: reporter: mCherry (pCS4076), ligand present: no
Procedure, shortened: (§2)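 For each 6-well well, 4 µg of library plasmid encoding mCherry-linked ribozyme switches, or eGFP-linked ones in some ligand experiments, was transfected into HEK293T. Any ligand was added 1 h before transfection, and RNA was extracted with EDTA 72 h after it, then reverse-transcribed, amplified, barcoded and sequenced. RNA level was obtained by dividing RNA reads by DNA reads, normalizing to a spiked-in non-cleaving sequence or to the top sequences, then scaling and log-transforming. The top set was 25 sequences, scaling was ×100 with log10, and ≥100 DNA reads were required.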

cyclic di-GMP [3] = variants of: B1; assay: FACS-Seq fitted mean relative fluorescence mCherry/BFP with ligand (log10 relative fluorescence); HEK293T; ligand: cyclic di-GMP (c-di-GMP-II aptamer); ligand concentration (+) FACS-Seq: 1 mM; higher = higher reporter protein expression; conditions: ligand present: yes
Procedure, shortened: as §1

cyclic di-GMP [4] = variants of: B1; assay: normalized RNA/DNA level with ligand (relative to sTRSVctl = 100) (log10 (% of sTRSVctl)); HEK293T; ligand: cyclic di-GMP (c-di-GMP-II aptamer); ligand concentration (+) RNA-Seq: 1 mM; higher = less ribozyme self-cleavage, higher mRNA level; conditions: reporter: mCherry (pCS4076), ligand present: yes
Procedure, shortened: as §2

## GCUGUCACCGAGAAACUGUGAAGUAUAUCUUAAACCUGGGCACUUAAAAGAUAUAUGGAGUUAGUAGUGCAACCUGCUCGGUCUGAUGAGUCCUCAUUAGGACGAAACAGC [UCAUUA]
Cyclic di-GMP [1]
  FACS-Seq fitted mean (log10): -0.996 ± 0.055
Cyclic di-GMP [2]
  normalized RNA/DNA level without ligand (log10): 1.5 ± 0.017
Cyclic di-GMP [3]
  FACS-Seq fitted mean (log10): -0.732 ± 0.049
Cyclic di-GMP [4]
  normalized RNA/DNA level with ligand (log10): 1.73 ± 0.15

## GCUGUCACCGAGAAACUGUGAAGUAUAUCUUAAACCUGGGCACUUAAAAGAUAUAUGGAGUUAGUAGUGCAACCUGCUCGGUCUGAUGAGUCCUCAUUUGGACGAAACAGC [UCAUUU]
Cyclic di-GMP [1]
  FACS-Seq fitted mean (log10): -0.43 ± 0.036
Cyclic di-GMP [2]
  normalized RNA/DNA level without ligand (log10): 1.637 ± 0.0076
Cyclic di-GMP [3]
  FACS-Seq fitted mean (log10): -0.178 ± 0.038
Cyclic di-GMP [4]
  normalized RNA/DNA level with ligand (log10): 1.78 ± 0.14

## GCUGUCACCGAGAAACUGUGAAGUAUAUCUUAAACCUGGGCACUUAAAAGAUAUAUGGAGUUAGUAGUGCAACCUGCUCGGUCUGAUGAGUCCCCCAAAGGACGAAACAGC [CCCAAA]
Cyclic di-GMP [1]
  FACS-Seq fitted mean (log10): -0.275 ± 0.06
Cyclic di-GMP [2]
  normalized RNA/DNA level without ligand (log10): 1.48 ± 0.062
Cyclic di-GMP [3]
  FACS-Seq fitted mean (log10): 0.0473 ± 0.081
Cyclic di-GMP [4]
  normalized RNA/DNA level with ligand (log10): 1.69 ± 0.1

## GCUGUCACCGAGAAACUGUGAAGUAUAUCUUAAACCUGGGCACUUAAAAGAUAUAUGGAGUUAGUAGUGCAACCUGCUCGGUCUGAUGAGUCCACAUUAGGACGAAACAGC [ACAUUA]
Cyclic di-GMP [1]
  FACS-Seq fitted mean (log10): -0.21 ± 0.0052
Cyclic di-GMP [2]
  normalized RNA/DNA level without ligand (log10): 1.41 ± 0.087
Cyclic di-GMP [3]
  FACS-Seq fitted mean (log10): 0.0676 ± 0.069
Cyclic di-GMP [4]
  normalized RNA/DNA level with ligand (log10): 1.62 ± 0.078

## GCUGUCACCGAGAAACUGUGAAGUAUAUCUUAAACCUGGGCACUUAAAAGAUAUAUGGAGUUAGUAGUGCAACCUGCUCGGUCUGAUGAGUCCACAUUGGGACGAAACAGC [ACAUUG]
Cyclic di-GMP [1]
  FACS-Seq fitted mean (log10): -0.689 ± 0.036
Cyclic di-GMP [2]
  normalized RNA/DNA level without ligand (log10): 1.53 ± 0.024
Cyclic di-GMP [3]
  FACS-Seq fitted mean (log10): -0.401 ± 0.11
Cyclic di-GMP [4]
  normalized RNA/DNA level with ligand (log10): 1.69 ± 0.13

## GCUGUCACCGAGAAACUGUGAAGUAUAUCUUAAACCUGGGCACUUAAAAGAUAUAUGGAGUUAGUAGUGCAACCUGCUCGGUCUGAUGAGUCCGCAUGUGGACGAAACAGC [GCAUGU]
Cyclic di-GMP [1]
  FACS-Seq fitted mean (log10): -0.424 ± 0.036
Cyclic di-GMP [2]
  normalized RNA/DNA level without ligand (log10): 1.49 ± 0.073
Cyclic di-GMP [3]
  FACS-Seq fitted mean (log10): -0.147 ± 0.022
Cyclic di-GMP [4]
  normalized RNA/DNA level with ligand (log10): 1.69 ± 0.072

## GCUGUCACCGAGAAACUGUGAAGUAUAUCUUAAACCUGGGCACUUAAAAGAUAUAUGGAGUUAGUAGUGCAACCUGCUCGGUCUGAUGAGUCCCCAUUGGGACGAAACAGC [CCAUUG]
Cyclic di-GMP [1]
  FACS-Seq fitted mean (log10): -0.474 ± 0.062
Cyclic di-GMP [2]
  normalized RNA/DNA level without ligand (log10): 1.28 ± 0.11
Cyclic di-GMP [3]
  FACS-Seq fitted mean (log10): -0.134 ± 0.034
Cyclic di-GMP [4]
  normalized RNA/DNA level with ligand (log10): 1.55 ± 0.093

## GCUGUCACCGAGAAACUGUGAAGUAUAUCUUAAACCUGGGCACUUAAAAGAUAUAUGGAGUUAGUAGUGCAACCUGCUCGGUCUGAUGAGUCCACAUGGGGACGAAACAGC [ACAUGG]
Cyclic di-GMP [1]
  FACS-Seq fitted mean (log10): -0.46 ± 0.077
Cyclic di-GMP [2]
  normalized RNA/DNA level without ligand (log10): 1.44 ± 0.11
Cyclic di-GMP [3]
  FACS-Seq fitted mean (log10): -0.227 ± 0.031
Cyclic di-GMP [4]
  normalized RNA/DNA level with ligand (log10): 1.61 ± 0.11

## GCUGUCACCGAGAAACUGUGAAGUAUAUCUUAAACCUGGGCACUUAAAAGAUAUAUGGAGUUAGUAGUGCAACCUGCUCGGUCUGAUGAGUCCGCAUUGGGACGAAACAGC [GCAUUG]
Cyclic di-GMP [1]
  FACS-Seq fitted mean (log10): -0.56 ± 0.071
Cyclic di-GMP [2]
  normalized RNA/DNA level without ligand (log10): 1.5 ± 0.13
Cyclic di-GMP [3]
  FACS-Seq fitted mean (log10): -0.211 ± 0.025
Cyclic di-GMP [4]
  normalized RNA/DNA level with ligand (log10): 1.71 ± 0.052

## GCUGUCACCGAGAAACUGUGAAGUAUAUCUUAAACCUGGGCACUUAAAAGAUAUAUGGAGUUAGUAGUGCAACCUGCUCGGUCUGAUGAGUCCUCCAAAGGACGAAACAGC [UCCAAA]
Cyclic di-GMP [1]
  FACS-Seq fitted mean (log10): -0.284 ± 0.0034
Cyclic di-GMP [2]
  normalized RNA/DNA level without ligand (log10): 1.57 ± 0.076
Cyclic di-GMP [3]
  FACS-Seq fitted mean (log10): 0.111 ± 0.079
Cyclic di-GMP [4]
  normalized RNA/DNA level with ligand (log10): 1.75 ± 0.12

## GCUGUCACCGAGAAACUGUGAAGUAUAUCUUAAACCUGGGCACUUAAAAGAUAUAUGGAGUUAGUAGUGCAACCUGCUCGGUCUGAUGAGUCCUCAUGUGGACGAAACAGC [UCAUGU]
Cyclic di-GMP [1]
  FACS-Seq fitted mean (log10): -0.749 ± 0.0092
Cyclic di-GMP [2]
  normalized RNA/DNA level without ligand (log10): 1.63 ± 0.073
Cyclic di-GMP [3]
  FACS-Seq fitted mean (log10): -0.517 ± 0.028
Cyclic di-GMP [4]
  normalized RNA/DNA level with ligand (log10): 1.82 ± 0.077

## GCUGUCACCGAGAAACUGUGAAGUAUAUCUUAAACCUGGGCACUUAAAAGAUAUAUGGAGUUAGUAGUGCAACCUGCUCGGUCUGAUGAGUCCACCAAAGGACGAAACAGC [ACCAAA]
Cyclic di-GMP [1]
  FACS-Seq fitted mean (log10): -0.438 ± 0.056
Cyclic di-GMP [2]
  normalized RNA/DNA level without ligand (log10): 1.49 ± 0.12
Cyclic di-GMP [3]
  FACS-Seq fitted mean (log10): -0.0508 ± 0.12
Cyclic di-GMP [4]
  normalized RNA/DNA level with ligand (log10): 1.71 ± 0.1

## GCUGUCACCGAGAAACUGUGAAGUAUAUCUUAAACCUGGGCACUUAAAAGAUAUAUGGAGUUAGUAGUGCAACCUGCUCGGUCUGAUGAGUCCACCAACGGACGAAACAGC [ACCAAC]
Cyclic di-GMP [1]
  FACS-Seq fitted mean (log10): -0.0269 ± 0.12
Cyclic di-GMP [2]
  normalized RNA/DNA level without ligand (log10): 1.6 ± 0.048
Cyclic di-GMP [3]
  FACS-Seq fitted mean (log10): 0.111 ± 0.07
Cyclic di-GMP [4]
  normalized RNA/DNA level with ligand (log10): 1.76 ± 0.085

Source: the supplement of paper PMC6757056
